The results in this text go back to patent US20090192048A1, “METHOD OF PRODUCING A […] AGENT FOR BINDING A LIGAND” (priority 2005, published 2009).

Ends that are not written are not given here.

Holding throughout (assay type): physicochemical
Data set [1] can be described thus: Retention of peptides 2DOS-1 to 2DOS-16 on a hydrophobic surface (polypropylene microtitre plate wells), water wash. The settings on record: 400V scan. The procedure: The retention of peptides 2DOS-1 to 2DOS-16 on a hydrophobic surface (the wells of a polypropylene microtitre plate) was then investigated.
10 mM tris-HCl (pH 8.0) in 50% (v/v) aqueous acetonitrile was used as the solvent for the peptides and for TAMRA.
100 μl aliquots of 10 μM peptides 2DOS-1 to 2DOS-16 and 10 μM TAMRA were placed in the wells of a Costar microtitre plate as shown in FIG. 13:
The microtitre plate was imaged at 200 μm resolution on a Typhoon Trio Plus variable mode imager (Amersham Biosciences) with the green (532 nm) laser and the 580 BP 30 filter at the PMT voltages indicated below and at normal sensitivity. The scan height was set at +3 mm and the sample was pressed during scanning.
The peptides were allowed to evaporate to dryness overnight in the dark and the microtitre plate was again scanned as described above.
The wells were then washed ten times with 250 μl of water.
The residual surface-bound peptides were finally resuspended in 100 μl of 10 mM tris-HCl (pH 8.0) in 50% (v/v) aqueous acetonitrile and the microtitre plate was again scanned as described above.
The fluorescence images were analysed using ImageQuant TL v2003.03 (Amersham Biosciences).
Quantification data (using the data from the 400V scan) is given in Table 2 and shown graphically in FIG. 15.

Data set [2] is described as follows: Retention of peptides in V-bottomed polypropylene wells. The settings on record: V-bottom wells, 500V scan. In short, it runs like this:
(§1)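 1 μl of 10 μM peptide or TAMRA in 10 mM Tris-HCl pH 8.0/50% acetonitrile dried in the dark in flat- or V-bottomed polypropylene wells. Some wells washed 15 min at RT with 1 M NaCl in 10 mM Tris pH 8.0, others left untreated; all redissolved in 50 μl Tris/acetonitrile and fluorescence imaged at 532 nm excitation, 580 BP 30 filter.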

Data set [3] in a line: Retention of peptides in flat-bottomed polypropylene wells. The settings on record: flat-bottom wells, 500V scan. In short, it runs like this:
as §1

Data set [4] in a line: Retention of peptides on Costar polypropylene V-bottom wells. The following applies: 400V scan. In short, it runs like this: (§2)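 Peptides (5 μM) and TAMRA dried from 5 mM tris-HCl pH 8.0 in 75% acetonitrile in V-bottom wells; some wells washed 15 min at room temperature with 1 M NaCl in 10 mM tris-HCl pH 8.0. Residue redissolved in 10 mM tris-HCl pH 8.0/50% acetonitrile; retained fluorescence imaged with 532 nm excitation, 580 BP 30 filter.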

A short description of data set [5]: Retention of peptides on Greiner polypropylene V-bottom wells. The following applies: 400V scan. In short, it runs like this: as §2
Data set [6] can be described thus: Retention of peptides on Greiner polystyrene V-bottom wells. The settings on record: 400V scan. In short, it runs like this:
as §2

[7] abbreviates: washed 15 minutes in 1 M NaCl in 10 mM tris-HCl (pH 8.0).

“N-TAMRA-Ser-Asp- Ser-Asp-Ser-Asp- Ser-Asp-Ser-C ({TAMRA}-SDSDSDSDS) [Peptide 2DOS-11]”: in data set [1] (100 μl of 10 μM peptide before drying and washing), the “Initial fluorescence (×10^3)” value was 26,860 ×10^3. In data set [1] (dried, washed ten times with 250 μl water, resuspended), the “Recovered fluorescence (×10^3)” value is 0 ×10^3. For the same substance, the Percent retention is listed as 2% in data set [2]; 3% in data set [3]; 2% in data set [4]; 2% in data set [5]; 1% in data set [6]. Also, the Untreated fluorescence is 9,705,293 in data set [2] (unwashed); 13,960,552 in data set [3] (unwashed); 5,327,435 in data set [4] (unwashed); 3,510,896 in data set [5] (unwashed); 675,269 in data set [6] (unwashed). Besides, the Retained fluorescence in data set [2] (setting [7]) is listed as 192,272; in data set [3] (setting [7]) it was 476,318; in data set [4] (setting [7]), 102,040; in data set [5] (setting [7]), 86,818; in data set [6] (setting [7]) it was 7,365.
